# ± gives the uncertainty stated by the source.
# B1: 1-phosphatidylinositol 4,5-bisphosphate phosphodiesterase gamma-2, residues 772 to 827; numbered along this chain, P16885 (parent)
# chain: RTVKALYDYKAKRSDELSFCRGALIHNVSKEPGGWWKGDYGTRIQQYFPSNYVEDI
# Variants of: B1
# Assay: abundance fitness (aPCA) (normalised: wild type 0, dead -1); higher = more abundant; growth selection in yeast, the domain comes from the species named
# Conditions: Homo sapiens
row,Variant,abundance fitness
1,RTVKILYDYKAKRSDELSFCRGALIHNVSKEPGGWWKGDYGTRIQQYFPSNYVEDI,-0.903 ± 0.072
2,RTVKALYDYKAKSSDELSFCRGALIHNVSKEPGGWWKGDYGTRIQQYFPSNYVEDI,-0.056 ± 0.057
3,RTVKALYDYKAKRHDELSFCRGALIHNVSKEPGGWWKGDYGTRIQQYFPSNYVEDI,-0.107 ± 0.18
4,RTVKALYDYKAKRSDELSFCRGALIHNVSKEPGDWWKGDYGTRIQQYFPSNYVEDI,-0.085 ± 0.09
5,RTVKALYDYKAKRSDELSFCRGALIHNVSKEPGIWWKGDYGTRIQQYFPSNYVEDI,-0.143 ± 0.15
6,RTVKALYDYKAKRSDELSFCRGALIHNVSKEPGVWWKGDYGTRIQQYFPSNYVEDI,-0.032 ± 0.059
7,RTVKALYDYKAKRSDELSFCRGALIHNVSKEPGTWWKGDYGTRIQQYFPSNYVEDI,0.014 ± 0.088
8,RKVKALYDYKAKRSDELSFCRGALIHNVSKEPGGWWKGDYGTRIQQYFPSNYVEDI,-0.207 ± 0.068
9,REVKALYDYKAKRSDELSFCRGALIHNVSKEPGGWWKGDYGTRIQQYFPSNYVEDI,-0.279 ± 0.28
10,RIVKALYDYKAKRSDELSFCRGALIHNVSKEPGGWWKGDYGTRIQQYFPSNYVEDI,-0.111 ± 0.16
11,RSVKALYDYKAKRSDELSFCRGALIHNVSKEPGGWWKGDYGTRIQQYFPSNYVEDI,-0.089 ± 0.085
12,RTVKALYDYKAKRSDELSFCRHALIHNVSKEPGGWWKGDYGTRIQQYFPSNYVEDI,-0.704 ± 0.34
13,RTVKALYDYKAKRSDELSFCRDALIHNVSKEPGGWWKGDYGTRIQQYFPSNYVEDI,-0.236 ± 0.086
14,RTVKALYDYKAKRSDELSFCRLALIHNVSKEPGGWWKGDYGTRIQQYFPSNYVEDI,-1.14 ± 0.32
15,RTVKALYDYKAKRSDELSFCRGALIHNVSKEPGGWWKGDYGTRIQQCFPSNYVEDI,-0.401 ± 0.12
16,RTVKALYDYKAKRSDELSFCRGALIHNVSKEPGGWWKGDYGTRIQQHFPSNYVEDI,-0.437 ± 0.18
17,RTVGALYDYKAKRSDELSFCRGALIHNVSKEPGGWWKGDYGTRIQQYFPSNYVEDI,-0.782 ± 0.11
18,RTVAALYDYKAKRSDELSFCRGALIHNVSKEPGGWWKGDYGTRIQQYFPSNYVEDI,-0.259 ± 0.084
19,RTVRALYDYKAKRSDELSFCRGALIHNVSKEPGGWWKGDYGTRIQQYFPSNYVEDI,-0.205 ± 0.053
20,RTVKALSDYKAKRSDELSFCRGALIHNVSKEPGGWWKGDYGTRIQQYFPSNYVEDI,-0.109 ± 0.078
21,RTVKALYDYKAKRSDELSFCLGALIHNVSKEPGGWWKGDYGTRIQQYFPSNYVEDI,-0.79 ± 0.19
22,RTVKALYDYKAKRSDELSFCRGALIHNVSKEPGGWWKGDYGTRIEQYFPSNYVEDI,-0.819 ± 0.29
23,RTVKALYDYKAKRSDELSFCRGALIHNVSKEPGGWWKGDYGTRIPQYFPSNYVEDI,-0.699 ± 0.28
24,RTVKALYDYKAKRSGELSFCRGALIHNVSKEPGGWWKGDYGTRIQQYFPSNYVEDI,-0.047 ± 0.078

row,Variant,abundance fitness
1,RTVKALYDYKAKRSEELSFCRGALIHNVSKEPGGWWKGDYGTRIQQYFPSNYVEDI,0.018 ± 0.067
2,RTVKALYDYKAKRSAELSFCRGALIHNVSKEPGGWWKGDYGTRIQQYFPSNYVEDI,-0.182 ± 0.076
3,RTVKATYDYKAKRSDELSFCRGALIHNVSKEPGGWWKGDYGTRIQQYFPSNYVEDI,-0.161 ± 0.14
4,RTVKALYDYKAKRSDELSRCRGALIHNVSKEPGGWWKGDYGTRIQQYFPSNYVEDI,-0.966 ± 0.17
5,RTVKALYDYKAKRSDELSKCRGALIHNVSKEPGGWWKGDYGTRIQQYFPSNYVEDI,-0.558 ± 0.42
6,RTVKALYDYKAKRSDELSFCRGALIHNVSKEPGGWWKGDYGTRIQQYFPSNYVQDI,-0.392 ± 0.12
7,RTVKALYDYKAKRSDELSFCRGALIHNVSKEPGGWWKGDYGTRIQQYFPSNYVRDI,-0.125 ± 0.045
8,RTVKALYDYKAKRSDELSFCRGALIHNVSKEPGGWWKGDYGWRIQQYFPSNYVEDI,-0.186 ± 0.045
9,RTVKALYDYKAKRSDELSFCRGALIHNVSKEPGGWWKGDYGVRIQQYFPSNYVEDI,-0.165 ± 0.065
10,RTVKALYDYKAKRSDELSFCRGALIHNVSKEPGGWWKGDYGDRIQQYFPSNYVEDI,0.076 ± 0.068
11,RTVKALYDYKAKRSDELSFCRGALIHNVSKEPGGWWKGDYGMRIQQYFPSNYVEDI,-0.01 ± 0.086
12,RTVKALYDYKAKRSDELSFCRGALIHNVSKEPGGWWKGDYGPRIQQYFPSNYVEDI,0.147 ± 0.13
13,RTVKALYDYKAKRSDELSFCRGALIHNVSKEPGGWWKGDYGQRIQQYFPSNYVEDI,-0.262 ± 0.21
14,RTVKALYDYKAKRSDELSFCRGALIHNVSKEPGGWWKGDYGTRIQQYFPSNYEEDI,-0.934 ± 0.28
15,RTVKALYDYKAKRSDELSFCRGALIHNVSKEPGGWWKGDYYTRIQQYFPSNYVEDI,-0.557 ± 0.35
16,RTVKALYDYKAKRSDELSFCRGALIHNVSKEPGGWWKGDYVTRIQQYFPSNYVEDI,-0.889 ± 0.078
17,RTVKALYDYKAKRSDELSFCRGALIHNVSKEPGGWWKGDYITRIQQYFPSNYVEDI,-0.566 ± 0.37
18,RTVKALYDYKAKRSDELSFCRGALIHNVSKEPGGWWKGDYKTRIQQYFPSNYVEDI,-0.012 ± 0.08
19,RTVKALYDYKAKRSDELSFCRGALIHNVSKLPGGWWKGDYGTRIQQYFPSNYVEDI,-0.015 ± 0.072
20,RTVKALYDYKAKRSDELSFCRGALIHNVSKEPGGWWKGGYGTRIQQYFPSNYVEDI,-0.864 ± 0.13
21,RTVKALYDYKAKRSDELSFCRGALIHNVSKEPGGWWKGVYGTRIQQYFPSNYVEDI,-0.882 ± 0.18
22,RTVKALYDYKAKRSDELSFCRGALIHNVSKEPGGWWKGDYGTRIQQYFPRNYVEDI,0.035 ± 0.062
23,RTVKALYDYKAKRSDELSFCRGALIHNVSKEPGGWWKGDYGTRIQQYFPCNYVEDI,-0.18 ± 0.1
